Data on four molecules can be found in publication PMC2110899, “Exchanging Murine and Human Immunoglobulin Constant Chains Affects the Kinetics and Thermodynamics of Antigen Binding and Chimeric Antibody Autoreactivity” (PLoS ONE, 2007).

For assay [1], the target named is deglycosylated form of mAb 18B7 (mouse). The assay can be described thus: SPR; BIAcore 3000; antibody immobilised on a CM5 chip through primary amino groups; peptide P1 1.56 µM to 200 µM at 100 µl/min in 0.2 mM K2HPO4/KH2PO4 pH 6.5, 150 mM KCl, 0.01% Tween 20; 25°C; global fit to a two-state model, equilibrium constants calculated from the rate constants.
The target of assay [2] is Mouse-human chimeric antibody 18B7 (IgG1) (mouse | human). The assay is described as above.
In assay [3] the target is GXM-binding murine monoclonal antibody 18B7 (mouse). The assay is described as above.
Another assay deals with T1, thyroglobulin (Bos taurus (assumed), UniProt P01267).
T1 construct: thyroglobulin (Sigma); source: bought: Sigma
The assay can be described thus: ELISA; polystyrene plates coated overnight at 4°C with antigen at 5 µg/ml in bicarbonate buffer pH 9.6; blocked with 1% BSA in TBS; Abs added at 40 µg/ml in 1% BSA/TBS and serially diluted, overnight at 4°C; alkaline-phosphatase conjugated anti-mouse or anti-human IgG. As to conditions: both partners purified. In general terms: An ELISA detects its analyte on a solid surface through an enzyme-linked reagent.

Ends that are not written are not given here.

T1 sequence (P01267 20-2769): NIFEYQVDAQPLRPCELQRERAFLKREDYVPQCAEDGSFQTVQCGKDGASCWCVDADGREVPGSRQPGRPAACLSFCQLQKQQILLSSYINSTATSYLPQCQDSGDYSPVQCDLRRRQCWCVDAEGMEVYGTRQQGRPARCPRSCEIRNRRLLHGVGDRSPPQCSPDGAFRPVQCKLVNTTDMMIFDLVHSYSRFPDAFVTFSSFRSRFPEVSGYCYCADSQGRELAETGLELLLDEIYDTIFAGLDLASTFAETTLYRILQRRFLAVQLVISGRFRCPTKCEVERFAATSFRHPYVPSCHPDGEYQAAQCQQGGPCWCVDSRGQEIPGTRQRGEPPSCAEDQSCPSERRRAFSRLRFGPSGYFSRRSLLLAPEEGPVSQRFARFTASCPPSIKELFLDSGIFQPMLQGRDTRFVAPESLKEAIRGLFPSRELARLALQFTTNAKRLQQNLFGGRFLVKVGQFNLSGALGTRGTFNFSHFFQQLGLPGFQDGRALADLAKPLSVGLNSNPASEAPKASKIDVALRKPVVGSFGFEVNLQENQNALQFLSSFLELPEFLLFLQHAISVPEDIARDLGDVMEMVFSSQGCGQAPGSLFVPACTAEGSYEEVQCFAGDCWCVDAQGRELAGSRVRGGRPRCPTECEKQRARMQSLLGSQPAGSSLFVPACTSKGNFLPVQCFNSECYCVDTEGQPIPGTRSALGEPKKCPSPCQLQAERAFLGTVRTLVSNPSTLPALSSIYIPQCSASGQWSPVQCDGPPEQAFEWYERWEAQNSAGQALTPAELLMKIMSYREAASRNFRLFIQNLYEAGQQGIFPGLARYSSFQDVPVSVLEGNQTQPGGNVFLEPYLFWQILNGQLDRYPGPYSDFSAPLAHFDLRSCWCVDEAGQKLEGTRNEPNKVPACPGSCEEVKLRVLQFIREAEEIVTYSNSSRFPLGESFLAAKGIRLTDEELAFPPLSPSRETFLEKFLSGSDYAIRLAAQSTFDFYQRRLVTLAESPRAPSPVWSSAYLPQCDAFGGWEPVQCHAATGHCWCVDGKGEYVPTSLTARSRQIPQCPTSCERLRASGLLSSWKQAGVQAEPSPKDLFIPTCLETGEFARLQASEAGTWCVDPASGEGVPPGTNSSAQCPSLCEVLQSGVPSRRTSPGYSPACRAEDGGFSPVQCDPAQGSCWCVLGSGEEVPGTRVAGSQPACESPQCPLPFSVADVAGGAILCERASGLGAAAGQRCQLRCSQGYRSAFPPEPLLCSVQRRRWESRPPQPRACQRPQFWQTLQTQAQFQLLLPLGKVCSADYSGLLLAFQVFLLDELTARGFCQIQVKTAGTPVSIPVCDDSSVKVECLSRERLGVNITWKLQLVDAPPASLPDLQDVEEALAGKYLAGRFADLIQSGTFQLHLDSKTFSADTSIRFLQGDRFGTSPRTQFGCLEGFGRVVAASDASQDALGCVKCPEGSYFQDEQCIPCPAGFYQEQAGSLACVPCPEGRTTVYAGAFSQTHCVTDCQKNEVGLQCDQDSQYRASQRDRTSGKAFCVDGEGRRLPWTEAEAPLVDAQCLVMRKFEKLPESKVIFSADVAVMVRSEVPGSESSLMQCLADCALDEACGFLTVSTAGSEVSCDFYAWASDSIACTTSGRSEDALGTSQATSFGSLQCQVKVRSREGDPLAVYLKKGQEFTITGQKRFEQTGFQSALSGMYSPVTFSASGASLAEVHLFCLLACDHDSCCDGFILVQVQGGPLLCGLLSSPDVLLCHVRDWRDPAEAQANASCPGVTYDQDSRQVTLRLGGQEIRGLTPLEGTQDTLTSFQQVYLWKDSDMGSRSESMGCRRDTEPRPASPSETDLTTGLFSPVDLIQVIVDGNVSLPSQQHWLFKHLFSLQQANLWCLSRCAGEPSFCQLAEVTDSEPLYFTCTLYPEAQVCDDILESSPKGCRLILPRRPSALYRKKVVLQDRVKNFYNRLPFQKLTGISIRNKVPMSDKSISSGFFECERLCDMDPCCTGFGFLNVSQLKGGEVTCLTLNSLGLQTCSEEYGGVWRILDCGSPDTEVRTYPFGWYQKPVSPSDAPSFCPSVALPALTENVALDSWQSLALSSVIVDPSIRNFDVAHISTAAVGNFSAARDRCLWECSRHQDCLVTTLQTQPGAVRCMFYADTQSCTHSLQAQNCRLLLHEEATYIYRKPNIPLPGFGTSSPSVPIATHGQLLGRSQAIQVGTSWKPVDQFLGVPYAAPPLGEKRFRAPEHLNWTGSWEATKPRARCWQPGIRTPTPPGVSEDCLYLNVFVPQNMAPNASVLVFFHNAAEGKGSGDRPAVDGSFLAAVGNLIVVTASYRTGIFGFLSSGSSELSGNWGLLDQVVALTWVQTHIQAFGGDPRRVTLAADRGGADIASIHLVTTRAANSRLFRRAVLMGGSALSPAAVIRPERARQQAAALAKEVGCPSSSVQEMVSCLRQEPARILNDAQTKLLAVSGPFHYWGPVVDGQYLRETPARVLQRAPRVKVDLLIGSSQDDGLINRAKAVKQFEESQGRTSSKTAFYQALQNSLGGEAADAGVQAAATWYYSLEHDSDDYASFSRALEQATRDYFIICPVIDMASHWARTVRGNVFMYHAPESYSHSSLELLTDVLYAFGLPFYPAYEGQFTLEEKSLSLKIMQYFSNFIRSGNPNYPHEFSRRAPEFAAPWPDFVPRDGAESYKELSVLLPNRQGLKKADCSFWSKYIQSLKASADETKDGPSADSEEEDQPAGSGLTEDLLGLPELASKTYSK

B1: Peptide mimetic of GXM P1 (peptide)
peptide: SPNQHTPPWMLK
modifications: also: biotinylated, position not given here
B1: the Kd in assay [1] was 1.07 mM; in assay [2], 541 µM; in assay [3], 2.33 mM.

B2: Mouse-human chimeric antibody 18B7 (IgG1) (antibody, V domains shown)
VH: DVKLVESGGGLLKLGGSLKLSCVASGFSFSSYFMSWVRQTPEKRLELVAMINNNGDKTYYPDTVRGRFTISRDNAKNTLYLQMSSLKSEDTAMYYCARRDGTFGNHFDYWGQGTTLTVSS
VL: DVVMTQAPLALPVSLGDQASISCRSSQSLAHSNGNTYLHWYLQKPGQSPKLLIYKVSNRFSGVPDRFSGSGSGTDFTLKISRVEAEDLGVYFCSQSTHVPWTFGGGTKLEIK
notes: as the VH of m1 (identical V regions); human IgG1 (γ1) heavy chain constant region; as the VL of m1 (identical V regions); light chain constant region; IgG1; also called chAb 18B7; ch18B7; source: generated by cloning and transfection as described [36], purified by protein L agarose beads
For the molecule B2, in the assay with thyroglobulin, the binding result is reported as “binds”.

B3: GXM-binding murine monoclonal antibody 18B7 (antibody, V domains shown)
VH: B2 VH
VL: B2 VL
notes: VH of mAb 18B7; murine IgG1 heavy chain constant region; VL of mAb 18B7; murine light chain constant region; Murine IgG1; also called mAb 18B7; m18B7
As to B3, in the assay with thyroglobulin, the binding result is “binds”.

B4: deglycosylated form of mAb 18B7 (antibody, V domains shown)
VH: B2 VH
VL: B2 VL
notes: as the VH of m1; murine IgG1 heavy chain constant region, as in m1; as the VL of m1; as the light chain constant region of m1; Same chains as m1 without the N-glycan; PNGase F is known to turn the glycosylated Asn into Asp; also called 18B7dg; mAb 18B7dg; source: mAb 18B7 from hybridoma culture supernatants (protein G), incubated with PNGaseF at 37°C for 24 h, dialyzed against PBS
In the case of B4, the binding result with thyroglobulin was “binds”.

What is called Kd is the equilibrium constant for the complex coming apart.
